The values below come from article PMC13156308, “Proximal proteomics analysis reveals DNA polymerase δ subunit 3 is a new MCM2 binding partner and promotes parental histones inheritance in mammalian cells” (Cell Death and Differentiation, 2025).

The target in this test is T1, GST-tagged MCM2 (human, UniProt P49736 1-904).
T1 construct: MCM2, amplified from cDNA of human MCF-7 cells, in pGEX-C5X; called MCM2-His in the three-protein pull-down; also called GST-MCM2; MCM2-His; source: E. coli BL21, purified (Ni-NTA); not shown: GST, N-terminal, kept; His tag, C-terminal, kept
The experiment in a line: BLI; MCM2 immobilised on Anti-GST biosensors, BLItz, 1x PBS and 0.02% Tween; analyte 0-50.0 nM. The settings on record: both partners purified.

T1 sequence (P49736 whole entry): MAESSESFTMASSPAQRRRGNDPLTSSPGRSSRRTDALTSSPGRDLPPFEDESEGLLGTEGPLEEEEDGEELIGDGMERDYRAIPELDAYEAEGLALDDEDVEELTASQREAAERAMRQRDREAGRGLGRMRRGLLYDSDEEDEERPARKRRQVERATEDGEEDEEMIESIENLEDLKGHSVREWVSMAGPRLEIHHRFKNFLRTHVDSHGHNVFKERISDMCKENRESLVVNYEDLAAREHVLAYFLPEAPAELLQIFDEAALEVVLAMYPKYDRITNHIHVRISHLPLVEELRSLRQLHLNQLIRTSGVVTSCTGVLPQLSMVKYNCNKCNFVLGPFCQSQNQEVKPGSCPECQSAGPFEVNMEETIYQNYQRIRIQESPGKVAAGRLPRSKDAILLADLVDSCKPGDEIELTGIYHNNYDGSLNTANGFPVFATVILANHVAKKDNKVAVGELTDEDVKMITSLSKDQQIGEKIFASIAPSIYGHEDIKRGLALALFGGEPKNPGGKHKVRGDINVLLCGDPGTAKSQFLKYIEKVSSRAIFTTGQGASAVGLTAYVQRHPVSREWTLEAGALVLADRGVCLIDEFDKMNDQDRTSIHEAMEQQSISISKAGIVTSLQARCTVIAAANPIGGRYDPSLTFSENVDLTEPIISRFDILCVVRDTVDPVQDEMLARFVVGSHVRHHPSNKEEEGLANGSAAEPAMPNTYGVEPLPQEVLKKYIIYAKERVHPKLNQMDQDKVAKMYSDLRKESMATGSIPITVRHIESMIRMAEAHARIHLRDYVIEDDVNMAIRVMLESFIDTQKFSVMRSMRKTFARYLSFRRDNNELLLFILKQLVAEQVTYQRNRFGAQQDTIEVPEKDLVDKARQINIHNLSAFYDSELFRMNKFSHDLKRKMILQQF

B1: full-length strep-tagged POLD3 (natural protein, human, UniProt Q15054 1-466, looked up)
chain: MADQLYLENIDEFVTDQNKIVTYKWLSYTLGVHVNQAKQMLYDYVERKRKENSGAQLHVTYLVSGSLIQNGHSCHKVAVVREDKLEAVKSKLAVTASIHVYSIQKAMLKDSGPLFNTDYDILKSNLQNCSKFSAIQCAAAVPRAPAESSSSSKKFEQSHLHMSSETQANNELTTNGHGPPASKQVSQQPKGIMGMFASKAAAKTQETNKETKTEAKEVTNASAAGNKAPGKGNMMSNFFGKAAMNKFKVNLDSEQAVKEEKIVEQPTVSVTEPKLATPAGLKKSSKKAEPVKVLQKEKKRGKRVALSDDETKETENMRKKRRRIKLPESDSSEDEVFPDSPGAYEAESPSPPPPPSPPLEPVPKTEPEPPSVKSSSGENKRKRKRVLKSKTYLDGEGCIVTEKVYESESCTDSEEELNMKTSSVHRPPAMTVKKEPREERKGPKKGTAALGKANRQVSITGFFQRK
notes: full-length human POLD3 gene, synthesised and codon-optimised, in pET28b; also called purified POLD3; Strep II-tagged POLD3; source: E. coli BL21, purified (Ni-NTA); not shown: twin-strep, C-terminal, kept
Consider B1, for which the Kd turned out to be 10.2 nM.
